How the values were obtained:
[1] = biological target: T1, interleukin-2 beta receptor (SYMANSIS, #4122H) to which a human immunoglobulin Fc region was linked (UniProt P14784); test: SPR (Biacore T200), receptor-Fc captured by anti-human Ig antibody on CM5 chip; relative to analog 1 (aldesleukin)
T1 sequence (looked up): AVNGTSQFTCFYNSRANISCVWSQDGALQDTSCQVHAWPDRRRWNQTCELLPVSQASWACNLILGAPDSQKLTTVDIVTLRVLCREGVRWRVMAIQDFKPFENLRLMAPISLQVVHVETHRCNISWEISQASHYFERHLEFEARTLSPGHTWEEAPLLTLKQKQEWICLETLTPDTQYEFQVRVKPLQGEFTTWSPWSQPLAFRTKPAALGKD

[2] = biological target: interleukin-2 alpha receptor (SYMANSIS, #4102H) to which a human immunoglobulin Fc region was linked (UniProt P01589); test: as above
Sequence of interleukin-2 alpha receptor (SYMANSIS, #4102H) to which a human immunoglobulin Fc region was linked (P01589 22-213 limits assumed): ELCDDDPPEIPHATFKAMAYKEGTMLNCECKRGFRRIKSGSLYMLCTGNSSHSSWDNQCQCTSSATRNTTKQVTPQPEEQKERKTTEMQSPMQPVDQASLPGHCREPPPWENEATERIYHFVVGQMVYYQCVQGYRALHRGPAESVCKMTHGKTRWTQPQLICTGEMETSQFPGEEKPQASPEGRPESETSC

[3] = biological target: biotin-labeled human interleukin-2 receptor alpha subunit (ACROBiosystems) (human) (UniProt P01589); test: SPR (Biacore T200), biotin-labeled receptor subunit on streptavidin chip; relative to aldesleukin
Sequence of biotin-labeled human interleukin-2 receptor alpha subunit (ACROBiosystems) (human) (P01589 22-213): as the sequence (P01589 22-213 limits assumed) above

[4] = biological target: T2, biotin-labeled human interleukin-2 receptor beta subunit (ACROBiosystems) (human) (UniProt P14784); test: as above
T2 sequence (biotin-labeled (site not stated), looked up): T1 sequence (looked up)

Measured: Relative binding affinity (%)

Sequence of interleukin-2 analog 1 (aldesleukin) (P60568 other isoform, or with tags, fused parts or gaps): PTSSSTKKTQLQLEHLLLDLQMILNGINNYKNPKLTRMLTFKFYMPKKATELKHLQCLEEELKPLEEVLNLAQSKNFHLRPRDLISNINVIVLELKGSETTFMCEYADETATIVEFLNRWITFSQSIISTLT

interleukin-2 analog 1 (aldesleukin) (from UniProt P60568 22-153) (ligand)
100%: all assays above

Source: EP4678181A1
